# Test results published in patent US20220213176A1 (SHANGHAITECH UNIVERSITY, published 2022).
# Legend:
# HCoV-HKU1 spike = biological target: T1, HCoV-HKU1 spike (HCoV-HKU1, UniProt Q5MQD0 13-1356); test: FACS, transfected HEK293T cells, IgG4 antibody
# T1 construct: whole, on cells
# T1 sequence: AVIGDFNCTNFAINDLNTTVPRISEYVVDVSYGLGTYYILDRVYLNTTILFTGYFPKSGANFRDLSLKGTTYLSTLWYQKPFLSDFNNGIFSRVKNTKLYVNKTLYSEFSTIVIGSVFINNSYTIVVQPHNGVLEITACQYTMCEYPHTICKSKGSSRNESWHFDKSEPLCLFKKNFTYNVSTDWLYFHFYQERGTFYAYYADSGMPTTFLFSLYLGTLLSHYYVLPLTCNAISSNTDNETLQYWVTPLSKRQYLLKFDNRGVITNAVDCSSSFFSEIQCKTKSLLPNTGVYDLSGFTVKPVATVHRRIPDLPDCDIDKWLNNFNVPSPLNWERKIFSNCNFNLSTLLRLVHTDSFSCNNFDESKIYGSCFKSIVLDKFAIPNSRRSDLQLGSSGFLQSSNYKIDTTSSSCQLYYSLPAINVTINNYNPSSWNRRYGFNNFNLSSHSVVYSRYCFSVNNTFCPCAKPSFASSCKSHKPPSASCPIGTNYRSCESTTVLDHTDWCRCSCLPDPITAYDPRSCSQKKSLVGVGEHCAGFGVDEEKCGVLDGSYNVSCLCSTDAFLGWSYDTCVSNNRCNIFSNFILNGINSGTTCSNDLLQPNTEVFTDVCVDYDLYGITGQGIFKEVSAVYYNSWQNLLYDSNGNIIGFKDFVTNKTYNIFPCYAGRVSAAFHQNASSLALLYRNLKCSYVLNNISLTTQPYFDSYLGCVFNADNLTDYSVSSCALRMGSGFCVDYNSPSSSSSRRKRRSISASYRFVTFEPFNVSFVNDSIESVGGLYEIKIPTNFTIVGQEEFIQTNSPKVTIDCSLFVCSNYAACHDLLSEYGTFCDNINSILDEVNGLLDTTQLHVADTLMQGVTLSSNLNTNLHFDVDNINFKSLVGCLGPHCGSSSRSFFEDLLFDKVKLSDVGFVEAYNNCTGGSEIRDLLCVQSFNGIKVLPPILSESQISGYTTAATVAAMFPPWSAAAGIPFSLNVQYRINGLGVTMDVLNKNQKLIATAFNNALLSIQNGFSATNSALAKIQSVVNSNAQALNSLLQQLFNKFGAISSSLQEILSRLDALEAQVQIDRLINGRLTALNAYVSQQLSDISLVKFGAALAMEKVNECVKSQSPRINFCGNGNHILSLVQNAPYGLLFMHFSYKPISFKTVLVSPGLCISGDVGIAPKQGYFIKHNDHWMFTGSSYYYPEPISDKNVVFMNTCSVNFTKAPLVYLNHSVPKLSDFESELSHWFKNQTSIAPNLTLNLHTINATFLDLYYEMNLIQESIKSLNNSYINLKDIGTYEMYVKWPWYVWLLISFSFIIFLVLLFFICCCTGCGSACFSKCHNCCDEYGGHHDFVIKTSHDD
# HCoV-NL63 spike = biological target: T2, HCoV-NL63 spike (HCoV-NL63, UniProt Q6Q1S2 19-1356); test: FACS, transfected HEK293T cells, IgG4 antibody
# T2 construct: whole, on cells
# T2 sequence: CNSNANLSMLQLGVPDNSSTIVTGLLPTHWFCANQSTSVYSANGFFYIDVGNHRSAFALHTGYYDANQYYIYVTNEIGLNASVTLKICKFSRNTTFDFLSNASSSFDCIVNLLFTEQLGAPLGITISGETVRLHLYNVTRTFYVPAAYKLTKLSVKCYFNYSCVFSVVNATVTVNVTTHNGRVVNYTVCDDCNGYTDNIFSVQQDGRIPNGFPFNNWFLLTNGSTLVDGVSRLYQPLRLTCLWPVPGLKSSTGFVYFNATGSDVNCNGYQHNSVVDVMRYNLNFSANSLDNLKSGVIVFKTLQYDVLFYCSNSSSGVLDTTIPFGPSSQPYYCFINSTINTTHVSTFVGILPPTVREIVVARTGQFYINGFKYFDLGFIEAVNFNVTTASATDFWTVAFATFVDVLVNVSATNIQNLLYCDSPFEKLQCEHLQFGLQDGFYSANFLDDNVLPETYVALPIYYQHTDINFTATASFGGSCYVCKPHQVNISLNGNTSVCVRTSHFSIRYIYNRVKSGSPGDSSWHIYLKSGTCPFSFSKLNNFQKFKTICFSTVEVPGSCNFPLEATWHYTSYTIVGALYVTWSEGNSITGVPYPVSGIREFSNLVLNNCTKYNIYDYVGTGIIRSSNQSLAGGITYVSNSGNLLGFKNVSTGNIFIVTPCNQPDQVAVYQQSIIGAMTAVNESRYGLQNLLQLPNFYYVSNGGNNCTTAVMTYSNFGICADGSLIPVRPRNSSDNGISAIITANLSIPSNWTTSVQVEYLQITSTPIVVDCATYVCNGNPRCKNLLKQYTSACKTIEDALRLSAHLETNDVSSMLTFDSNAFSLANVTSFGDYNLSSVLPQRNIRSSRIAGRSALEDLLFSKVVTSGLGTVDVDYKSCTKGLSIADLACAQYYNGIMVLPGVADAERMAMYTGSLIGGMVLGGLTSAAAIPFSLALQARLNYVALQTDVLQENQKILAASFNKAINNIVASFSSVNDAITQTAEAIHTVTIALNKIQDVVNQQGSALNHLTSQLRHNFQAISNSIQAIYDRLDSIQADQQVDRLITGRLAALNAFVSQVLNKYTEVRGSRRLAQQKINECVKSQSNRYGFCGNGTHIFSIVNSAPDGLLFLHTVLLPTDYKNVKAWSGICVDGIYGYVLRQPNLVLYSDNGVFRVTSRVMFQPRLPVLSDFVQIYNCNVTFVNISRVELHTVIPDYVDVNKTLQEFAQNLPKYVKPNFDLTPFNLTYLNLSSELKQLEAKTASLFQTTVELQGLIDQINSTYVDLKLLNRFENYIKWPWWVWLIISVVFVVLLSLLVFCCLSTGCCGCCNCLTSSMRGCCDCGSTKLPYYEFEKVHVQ
Binder,binding result (HCoV-HKU1 spike),binding result (HCoV-NL63 spike)
"S-B8 (antibody, V domains shown, also called S-B8 dimer) VH: QVQLVQSGGGLIQPGGSLRLSCAASGFTVSLSHMNWVRQAPGKGLEWVSITYGDGNSDYADSVKGRFTISRDNSKNTLYLQMNSLRAEDTAVYYCAREYYYGMDVWGQGTTVTVSS VL: not shown",no binding,no binding
"S-E6 (antibody, V domains shown, also called S-E6 dimer; dimer S-E6) VH: QVTLRESGPGLVKPSETLSLTCAVSGGSLSSVNYYWSWIRQHPGKGLEWIGYIYYSGSTNYNPSLKSRVTMSLDTSKNQFSLKLSSVTAADTAVYYCATPGAIMGALHIWGQGTLVTVSS VL: QAVLTQPSSASSTPGQRVIISCSGSSSNIGSNTVSWYQQVPGAAPKLLIYFDYRRPSGVPDRFSGTRSGTSASLGISGLQSEDEADYYCAAWDDSLSAWVFGRGTKLTVLG",no binding,no binding
"S-D4 (antibody, V domains shown, also called S-D4 dimer; S-D4 IgG4) VH: QVQLQESGGGVVQPGRSLRLSCEVSGFTFSDYGMHWVRQAPGKGLEWVAVIWSEGSTEYYADSVKGRFTISRDNSKDTLYLQMNSLRAEDTAVYYCARPGYPTSTDRSPAAAGARQYYYYGMDVWGQGTTVTVSS VL: NFMLTQPHSVSESPGKTVTISCTRSGGSGAANYVQWYQQRPGSSPTTLIYEDSRRPPGVPDRFSGSVDTSSNSASLTISGLQTEDEADYYCQSYDSSNHVVFGGGTKLTVLG",no binding,no binding
